Experimental data taken from patent US20250049953A1, “TREATMENT AND METHOD FOR INHIBITING LATE NA CURRENT” (THE TRUSTEES OF COLUMBIA UNIVERSITY IN THE CITY OF NEW YORK, priority 2022, published 2025).

Target: T1, NaV1.5 ΔKPQ mutant (Homo sapiens, UniProt Q14524, DEL1505-1507)
T1 construct: expressed in transfected cells; host or cells: HEK293 (ATCC CRL1573)
Test: Multichannel recordings of late Na current, NaV1.5 ΔKPQ mutant in HEK293 cells
Format: cell-based
From the text: The human NaV1.5 channel corresponds to clone M77235.1 (GenBank) and is subcloned into pGW 1 vector with HindIII and SaII. To facilitate construction of channelopathic mutations in the channel carboxy-terminus, we introduced silent mutations into NaV1.5 to introduce an NruI cutting site near the channel carboxy-terminus (5329-gtggccacg-5337 into 5329-gtCgcGacg-5337). Subsequently, we used overlap-extension PCR and ligated the PCR product into NaV1.5/pGW1 using NruI and XbaI restriction sites (mutations: E1784K, S1904L, IQ/AA, and Q1909R). For generating the ΔKPQ and IFM/IQM mutations, we used overlap-extension PCR and ligated in NaV1.5/pGW1 following restriction digest using KpnI and XbaI site. For generation of NaV1.5 truncations, we PCR amplified relevant segments using a forward primer upstream of the KpnI site and a reverse primer that truncated at the appropriate location (Δ1810 and Δ1885) and included an XbaI site and ligated into NaV1.5/pW1 vector. For LILA/WICW mutations, we used overlap extension and used restriction site AgeI and NheI for subsequent ligation. All segments subjected to PCR amplification were verified by sequencing. For generating human FHF2 splice-variants, we synthesized gene fragments and ligated into pcDNA3 using BamHI/EcoRI restriction sites. Human FHF1A and FHF1B were subcloned into ECFP-N3 vector, FHF2 splice variants and FHF3 were subcloned into pcDNA3. […]

Substance | change in INa,L (2-hour incubation with 10 μM FixR-cpp) | change in INa,L (co-expression with NaV1.5 ΔKPQ in HEK293 cells)
FixR-cpp: FixR fused to HIV-1 TAT transduction domain, YGRKKRRQRRRAAAIASSLIRQKRQARESNSERVSASKRRSSPSKG (SEQ ID NO: 2) | diminished INa,L | –
FixR: minimal 39-amino-acid FHF1A amino-terminal effector domain, MAAAIASSLIRQKRQARESNSDRVSASKRRSSPSKDGRS (SEQ ID NO: 4), expressed as peptide | – | inhibits INa,L
